Measurements from PMC8418782 (Molecular cell, 2021).

Columns and labels:
[1] = biological target: T1, human Hsp90α (human, UniProt P07900 1-732); assay: SEC-MALS
[2] = biological target: T1, human Hsp90α; assay: SEC-MALS; remark: listed apart in the source

stoichiometry N [1]	binding result [2]	Binder
~0.5 p23 per Hsp90 chain (Hsp90:FKBP51:p23 2:1:1)		human p23 (natural protein) MQPASAKWYDRRDYVFIEFCVEDSKDVNVNFEKSKLTFSCLGGSDNFKHLNEIDLFHCIDPNDSKHKRTDRSILCCLRKGESGQSWPRLTKERAKLNWLSVDFNNWKDWEDDSDEDMSNFDRFSEMMNNMGGDEDVDLPEVDGADDDSQDSDDEKMPDLE
	binds	FKBP51 N402K (natural protein, human, UniProt Q13451 1-457, looked up) MTTDEGAKNNEESPTATVAEQGEDITSKKDRGVLKIVKRVGNGEETPMIGDKVYVHYKGKLSNGKKFDSSHDRNEPFVFSLGKGQVIKAWDIGVATMKKGEICHLLCKPEYAYGSAGSLPKIPSNATLFFEIELLDFKGEDLFEDGGIIRRTKRKGEGYSNPNEGATVEIHLEGRCGGRMFDCRDVAFTVGEGEDHDIPIGIDKALEKMQREEQCILYLGPRYGFGEAGKPKFGIEPNAELIYEVTLKSFEKAKESWEMDTKEKLEQAAIVKEKGTVYFKGGKYMQAVIQYGKIVSWLEMEYGLSEKESKASESFLLAAFLNLAMCYLKLREYTKAVECCDKALGLDSANEKGLYRRGEAQLLMNEFESAKGDFEKVLEVNPQNKAARLQISMCQKKAKEHKERDRRIYANMFKKFAEQDAKEEANKAMGKKTSEGVTNEKGTDSQAMEEEKPEGHV
	binds	FKBP51 ΔH7e (Δ401–457) (domain or fragment, human, UniProt Q13451 1-400, looked up) MTTDEGAKNNEESPTATVAEQGEDITSKKDRGVLKIVKRVGNGEETPMIGDKVYVHYKGKLSNGKKFDSSHDRNEPFVFSLGKGQVIKAWDIGVATMKKGEICHLLCKPEYAYGSAGSLPKIPSNATLFFEIELLDFKGEDLFEDGGIIRRTKRKGEGYSNPNEGATVEIHLEGRCGGRMFDCRDVAFTVGEGEDHDIPIGIDKALEKMQREEQCILYLGPRYGFGEAGKPKFGIEPNAELIYEVTLKSFEKAKESWEMDTKEKLEQAAIVKEKGTVYFKGGKYMQAVIQYGKIVSWLEMEYGLSEKESKASESFLLAAFLNLAMCYLKLREYTKAVECCDKALGLDSANEKGLYRRGEAQLLMNEFESAKGDFEKVLEVNPQNKAARLQISMCQKKAKE
